From article PMC8113721, “The lysosomal protein ABCD4 can transport vitamin B12 across liposomal membranes in vitro” (The Journal of Biological Chemistry, 2021)

B2: His-tagged human ABCD4 (natural protein)
chain: AVAGPAPGAGARPRLDLQFLQRFLQILKVLFPSWSSQNALMFLTLLCLTLLEQFVIYQVGLIPSQYYGVLGNKDLEGFKTLTFLAVMLIVLNSTLKSFDQFTCNLLYVSWRKDLTEHLHRLYFRGRAYYTLNVLRDDIDNPDQRISQDVERFCRQLSSMASKLIISPFTLVYYTYQCFQSTGWLGPVSIFGYFILGTVVNKTLMGPIVMKLVHQEKLEGDFRFKHMQIRVNAEPAAFYRAGHVEHMRTDRRLQRLLQTQRELMSKELWLYIGINTFDYLGSILSYVVIAIPIFSGVYGDLSPAELSTLVSKNAFVCIYLISCFTQLIDLSTTLSDVAGYTHRIGQLRETLLDMSLKSQDCEILGESEWGLDTPPGWPAAEPADTAFLLERVSISAPSSDKPLIKDLSLKISEGQSLLITGNTGTGKTSLLRVLGGLWTSTRGSVQMLTDFGPHGVLFLPQKPFFTDGTLREQVIYPLKEVYPDSGSADDERILRFLELAGLSNLVARTEGLDQQVDWNWYDVLSPGEMQRLSFARLFYLQPKYAVLDEATSALTEEVESELYRIGQQLGMTFISVGHRQSLEKFHSLVLKLCGGGRWELMRIKVE
notes: ABCD4 (ABC transporter subfamily D member 4), human; also called His-ABCD4; wildtype ABCD4; source: also reconstituted in liposomes

Columns and labels:
[1] = target: B2; test: cross-linking; purified His-ABCD4 and LMBD1–GST mixed; SDA and m-maleimidobenzoyl-N-hydroxysuccinimide ester (2 mM each), UV irradiation; immunoblot; details: both partners purified
[2] = target: the molecule itself; test: as above
[3] = target: the molecule itself; test: SEC; purified His-ABCD4 solubilized in β-DDM; size exclusion chromatography, polydisperse profile with a ∼360 kDa major peak
[4] = target: the molecule itself; test: not stated; mutant His-ABCD4 reconstituted in liposomes (Fig. S11B); the text does not name the method

B1: glutathione-S-transferase (GST)–tagged LMBD1 (natural protein, human, UniProt Q9NUN5 1-540, looked up)
chain: MATSGAASAELVIGWCIFGLLLLAILAFCWIYVRKYQSRRESEVVSTITAIFSLAIALITSALLPVDIFLVSYMKNQNGTFKDWANANVSRQIEDTVLYGYYTLYSVILFCVFFWIPFVYFYYEEKDDDDTSKCTQIKTALKYTLGFVVICALLLLVGAFVPLNVPNNKNSTEWEKVKSLFEELGSSHGLAALSFSISSLTLIGMLAAITYTAYGMSALPLNLIKGTRSAAYERLENTEDIEEVEQHIQTIKSKSKDGRPLPARDKRALKQFEERLRTLKKRERHLEFIENSWWTKFCGALRPLKIVWGIFFILVALLFVISLFLSNLDKALHSAGIDSGFIIFGANLSNPLNMLLPLLQTVFPLDYILITIIIMYFIFTSMAGIRNIGIWFFWIRLYKIRRGRTRPQALLFLCMILLLIVLHTSYMIYSLAPQYVMYGSQNYLIETNITSDNHKGNSTLSVPKRCDADAPEDQCTVTRTYLFLHKFWFFSAAYYFGNWAFLGVFLIGLIVSCCKGKKSVIEGVDEDSDISDDEPSVYSA
notes: LMBD1 (lysosomal membrane protein encoded by LMBRD1), human; GST itself can dimerise; the dimer seen by cross-linking is of the GST fusion; also called LMBD1–GST; source: also reconstituted in liposomes with His-ABCD4
stoichiometry N [1]: 1
stoichiometry N [2]: 2

B2
stoichiometry N [3]: 2

B3: His-ABCD4 (N141K) (natural protein, human)
chain: AVAGPAPGAGARPRLDLQFLQRFLQILKVLFPSWSSQNALMFLTLLCLTLLEQFVIYQVGLIPSQYYGVLGNKDLEGFKTLTFLAVMLIVLNSTLKSFDQFTCNLLYVSWRKDLTEHLHRLYFRGRAYYTLNVLRDDIDKPDQRISQDVERFCRQLSSMASKLIISPFTLVYYTYQCFQSTGWLGPVSIFGYFILGTVVNKTLMGPIVMKLVHQEKLEGDFRFKHMQIRVNAEPAAFYRAGHVEHMRTDRRLQRLLQTQRELMSKELWLYIGINTFDYLGSILSYVVIAIPIFSGVYGDLSPAELSTLVSKNAFVCIYLISCFTQLIDLSTTLSDVAGYTHRIGQLRETLLDMSLKSQDCEILGESEWGLDTPPGWPAAEPADTAFLLERVSISAPSSDKPLIKDLSLKISEGQSLLITGNTGTGKTSLLRVLGGLWTSTRGSVQMLTDFGPHGVLFLPQKPFFTDGTLREQVIYPLKEVYPDSGSADDERILRFLELAGLSNLVARTEGLDQQVDWNWYDVLSPGEMQRLSFARLFYLQPKYAVLDEATSALTEEVESELYRIGQQLGMTFISVGHRQSLEKFHSLVLKLCGGGRWELMRIKVE
notes: ABCD4, human, with the clinical missense mutation N141K; N141K is a clinical mutation reported in cobalamin deficiency; source: K. phaffii, purified and reconstituted in liposomes using the same procedure as used for His-ABCD4
stoichiometry N [4]: 2

B4: His-ABCD4 (Y319C) (natural protein, human)
chain: AVAGPAPGAGARPRLDLQFLQRFLQILKVLFPSWSSQNALMFLTLLCLTLLEQFVIYQVGLIPSQYYGVLGNKDLEGFKTLTFLAVMLIVLNSTLKSFDQFTCNLLYVSWRKDLTEHLHRLYFRGRAYYTLNVLRDDIDNPDQRISQDVERFCRQLSSMASKLIISPFTLVYYTYQCFQSTGWLGPVSIFGYFILGTVVNKTLMGPIVMKLVHQEKLEGDFRFKHMQIRVNAEPAAFYRAGHVEHMRTDRRLQRLLQTQRELMSKELWLYIGINTFDYLGSILSYVVIAIPIFSGVYGDLSPAELSTLVSKNAFVCICLISCFTQLIDLSTTLSDVAGYTHRIGQLRETLLDMSLKSQDCEILGESEWGLDTPPGWPAAEPADTAFLLERVSISAPSSDKPLIKDLSLKISEGQSLLITGNTGTGKTSLLRVLGGLWTSTRGSVQMLTDFGPHGVLFLPQKPFFTDGTLREQVIYPLKEVYPDSGSADDERILRFLELAGLSNLVARTEGLDQQVDWNWYDVLSPGEMQRLSFARLFYLQPKYAVLDEATSALTEEVESELYRIGQQLGMTFISVGHRQSLEKFHSLVLKLCGGGRWELMRIKVE
notes: ABCD4, human, with the clinical missense mutation Y319C; Y319C is a clinical mutation reported in cobalamin deficiency; source: K. phaffii, purified and reconstituted in liposomes using the same procedure as used for His-ABCD4
stoichiometry N [4]: 2
